Consider 17 molecules from patent US20230295310A1 (ABCELLERA BIOLOGICS, published 2023).

One assay deals with T1, human CD3e/d (human, UniProt P07766 23-126; P04234 22-105).
T1 construct: Bought soluble protein; also called hCD3e/d; human CD3/ed (Sino CT038-H2508H)
The experiment in a line: SPR (Carterra LSA), mAb on chip. The essentials: (§1)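 Purified mAbs amine-coupled (EDC/S-NHS) at 10 μg/mL in 10 mM NaOAc pH 4.25 onto an HC-30M chip, with benchmark and negative-control mAbs; analyte flowed over the array. Double-referenced sensorgrams fitted globally to a 1:1 Langmuir model for ka, kd and KD.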

The target in a further assay is T2, human CD3e/g (human, UniProt P07766 23-126; P09693 23-116).
T2 construct: Bought soluble protein; also called hCD3e/g; human CD3e/g (Acro CDD-C52W4)
Briefly: SPR (Carterra LSA), mAb on chip. In outline:
as §1

The target in assay [1] is T3, cynomolgus monkey CD3 expressed on cyno primary T cells (cynomolgus monkey, UniProt Q95LI5 22-198; Q95LI8 22-171; Q95LI7 23-181).
T3 construct: whole, on cells; CD3 complex on purified cynomolgus monkey CD3 pan T cells; also called cyno CD3
The experiment in a line: flow cytometry, cyno primary T cells. The procedure: Purified antibodies were confirmed to bind CD3 expressed on cells using the CytoFLEX S or LX flow cytometers (Beckman Coulter). Antibodies were diluted to 25 nM in FACS buffer (PBS+2% FBS) and were incubated with CD3-expressing cells for 30 minutes at 4° C. […] The median fluorescence intensity of the binding signal for each antibody was normalized to the isotype control to obtain a fold over isotype value. An antibody with a fold over isotype (FOI) of ≥10 was considered to be positive for binding.
(In flow cytometry, cells or beads pass a laser one at a time.)

T2 sequence (P07766 23-126, chain 1 of 2): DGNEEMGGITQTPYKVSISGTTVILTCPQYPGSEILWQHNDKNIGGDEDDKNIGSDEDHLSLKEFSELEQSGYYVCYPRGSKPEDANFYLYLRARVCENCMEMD
T2 sequence (P09693 23-116, chain 2 of 2): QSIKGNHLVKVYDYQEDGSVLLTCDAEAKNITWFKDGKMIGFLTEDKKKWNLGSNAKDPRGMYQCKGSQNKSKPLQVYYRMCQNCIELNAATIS
T1 sequence (P07766 23-126, chain 1 of 2): as the sequence (P07766 23-126, chain 1 of 2) above
T1 sequence (P04234 22-105, chain 2 of 2): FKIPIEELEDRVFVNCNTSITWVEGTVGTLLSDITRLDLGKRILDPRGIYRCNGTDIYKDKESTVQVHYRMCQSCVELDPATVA
T3 sequence (Q95LI5 22-198, chain 1 of 3): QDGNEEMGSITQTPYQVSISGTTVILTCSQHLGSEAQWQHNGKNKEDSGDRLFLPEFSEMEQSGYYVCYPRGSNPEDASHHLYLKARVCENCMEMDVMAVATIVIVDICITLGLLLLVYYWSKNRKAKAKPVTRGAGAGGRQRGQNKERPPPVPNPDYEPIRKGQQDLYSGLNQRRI
T3 sequence (Q95LI8 22-171, chain 2 of 3): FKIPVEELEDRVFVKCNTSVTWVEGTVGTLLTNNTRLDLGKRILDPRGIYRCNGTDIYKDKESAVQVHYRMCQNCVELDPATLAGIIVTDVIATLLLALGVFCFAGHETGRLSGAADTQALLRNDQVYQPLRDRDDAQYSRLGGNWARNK
T3 sequence (Q95LI7 23-181, chain 3 of 3): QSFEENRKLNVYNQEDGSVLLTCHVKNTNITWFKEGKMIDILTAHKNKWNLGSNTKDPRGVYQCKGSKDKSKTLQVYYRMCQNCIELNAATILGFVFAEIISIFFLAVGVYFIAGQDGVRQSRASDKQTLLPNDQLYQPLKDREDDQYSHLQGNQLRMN

B1: mAb 110 (antibody, V domains shown)
VH: QVQLVESGGGVVQPGRSLRLSCAASGFTFRSYGMHWVRQAPGKGLEWVAIIWYNGNKKDYVDSVKGRFTISRDNSKNMLYLQMNSLRAEDTALYYCARGPGYNWFDPWGQGTLVTVSS
VL: DIQMTQSPPSLSASVGDRVTITCRASQRISSYLNWYQQRPGKAPKLLIYAASSLQSGVPSRFSGSGSGTDFTLTISSLQPEDFATYYCQQTDSFPLTFGGGTKVEII
notes: VH and VL only
By Kd is commonly meant the concentration at which binding is half-saturated. B1: the dissociation constant (Kd) in the assay with human CD3e/d was 18.4 nM; with human CD3e/g, 8.97 nM.

B2: mAb 231 (antibody, V domains shown)
VH: QEQLVESGGGVVQPGRSLRLSCAASGFTFSSYGMHWVRQAPGKGLEWVAIIYYNGKKKDYADSVKGRFTISRDNSKNTLYLQMNSLRAEDTAVYYCVRGLGYNWFDPWGQGTLVTVSS
VL: EIVLTQSPDFQSVTPKEKVTITCRASQSIGSSLHWYQQKPDQSPKLLIKYASQSFSGVPSRFSGSGSGTDFTLTINSLEAEDAATYYCHQSSNLPYTFGQGTKLEIK
notes: VH/VL only
With B2, the binding result in assay [1] is on record as “no binding (tested: FOI <10 (FOI >=10 = positive); 25 nM)”.

B3: mAb 208 (antibody, V domains shown)
VH: QEQLVESGGGVVQPGRSLRLSCAASGFTFSSYGMHWVRQAPGKGLEWVAIIWYNGKKKDYADSVKGRFTISRDNSKSTLYLQMNSLRAEDTAVYYCARGLGYNWFDPWGQGTLVTVSS
VL: EIVLTQSPDFQSVTPMEKVTIACRASQNIGSSLHWYQQKPDQSPKLLIKYASQSFSGVPSRFSGSGSGTDFTLTINSLEAEDAATYYCHQSSSFPNTFGQGTKLEIK
notes: VH/VL only
B3: the binding result in assay [1] was “no binding (tested: FOI <10 (FOI >=10 = positive); 25 nM)”.

B4: mAb 227 (antibody, V domains shown)
VH: QEQLVESGGGVVQPGRSLRLSCAASGFIFSSYGMHWVRQAPGKGLEWVAIIWYNGKKRDYADSVKGRFTISRDNSKNTLYLQMNSLRAEDTAVYYCARGLGYNWFDPWGQGTLVTVSS
VL: EIVLTQSPDFQSVTPKEKVTITCRASQSIGSSLHWYQQKPDQSPKLLIKYASQSFSGVPSRFSGSGSGTDFTLTINSLEAEDAATYYCHQSSSLPYTFGQGTKLEIK
notes: VH/VL only
Consider B4, for which the binding result in assay [1] is reported as “no binding (tested: FOI <10 (FOI >=10 = positive); 25 nM)”.

B5: mAb 232 (antibody, V domains shown)
VH: QEQLVESGGGVVQPGRSLRLSCAASGFTFSSYGMHWVRQAPGKGLEWVAIIWYNGRKKDYADSVKGRFTISRDNSKNTLYLQMNSLRAEDTAVYYCARGLGYNWFDPWGQGTLVTVSS
VL: EIVLTQSPDFQSVTPMEKVTIACRASQSIGSSLHWYQQKPDQSPKLLIKYASQSFSGVPSRFSGSGSGTDFTLTINSLEAEDAATYYCHQSSSLPYTFGQGTKLEIK
notes: VH/VL only
With B5, in assay [1], the binding result is “no binding (tested: FOI <10 (FOI >=10 = positive); 25 nM)”.

B6: mAb 190 (antibody, V domains shown)
VH: QVQLVESGGGVVQPGRSLRLSCAASGFTFSGYGMHWVRQAPGKGLEWVAIIYYNGKKEYYADSVKGRFTISRDNSKNTLYLQMNSLRAEDTAVYYCTRGEGYNWFDPWGQGTLVTVSS
VL: EIVMTQSPATLSVSPGERATLSCRASQSVSSNLAWYQQKPGQAPRLLIYGASTRATGIPARFSGSGSGTEFTLTISSLQSEDFAVYYCKQYNNWPLTFGGGTKVEIK
notes: VH/VL only
Turning to B6, in assay [1], the binding result was “no binding (tested: FOI <10 (FOI >=10 = positive); 25 nM)”.

B7: mAb 223 (antibody, V domains shown)
VH: QVQLVESGGGVVQPGRSLRLSCAASGFTFSGYGMHWVRQAPGKGLEWVAIIYYNGNNRKYADSVKGRFTISRDNSKNMVSLQMNSLRVEDTAIYYCTRGDGYNWFVTWGQGTLVTVSS
VL: EIVMTQSPATLSVSPGEGATLSCRASQSVSSNLAWYHQKPGQAPRLLIYGASTRATGIPVRFSGSGSGTEFTLTISSLQSDDFAVYFCQQYNNWPLTFGGGTKVEIK
notes: VH/VL only
For B7, the binding result in assay [1] is on record as “no binding (tested: FOI <10 (FOI >=10 = positive); 25 nM)”.

B8: mAb 202 (antibody, V domains shown)
VH: QVQLVESGGGVVQPGRSLRLSCAASGFTFSGYGMHWVRQAPGKGLEWVAIIYYNGKKEYYADSVKGRFTISRDNSKNTLYLQMNSLRAEDTAVYFCTRGEGYNWFDPWGQGTLVTVSS
VL: EIVMTQSPATLSVSPGERATLSCRASQSVSSNLAWYQQKPGQAPRLLIYGASTRATGIPARFSGSGSGTEFTLTISSLQSEDFAVYYCKQYKNWPLTFGGGTKVEIK
notes: VH/VL only
Consider B8, for which the binding result in assay [1] was “no binding (tested: FOI <10 (FOI >=10 = positive); 25 nM)”.

B9: mAb 211 (antibody, V domains shown)
VH: QVQLVESGGGVVQPGRSLRLSCAASGFTFSGYGMHWVRQAPGKGLEWVAIIYYNGKREYYADSVKGRFTISRDNSKNTLYLQMNSLRAEDTAVYYCTRGEGYNWFDPWGQGTLVTVSS
VL: EIVMTQSPATLSVSPGERATLSCRASQSVSSNLAWYQQKPGQAPRLLIYGASTRATGIPARFSGSGSGTEFTLTISSLQSEDFAVYYCKHYNNWPLTFGGGTKVEIK
notes: VH/VL only
With B9, in assay [1], the binding result is “no binding (tested: FOI <10 (FOI >=10 = positive); 25 nM)”.

B10: mAb 200 (antibody, V domains shown)
VH: QVQLAESGGGVVQPGRSLRLSCAASGFTFSGYGMHWVRQAPGKGLEWVAIIYYNGKKEYYADSVKGRFTISRDNSKNTLYLQMNSLRAEDTAVYFCTRGEGYNWFDPWGQGTLVTVSS
VL: EIVMTQSPATLSVSPGERATLSCRASQSVSSNLAWYQQKPGQAPRLLIYGASTRATGIPARFSGSGSGTEFTLTISSLQSEDFAVYYCKQYKNWPLTFGGGTKVEIK
notes: VH/VL only
Take B10: the binding result in assay [1] was “no binding (tested: FOI <10 (FOI >=10 = positive); 25 nM)”.

B11: mAb 207 (antibody, V domains shown)
VH: QVQLVESGGGVVQPGRSLRLSCAASGFTFSGYGMHWVRQAPGKGLEWVAIIYYNGKKEYYADSVKGRFTISRDNSRNTLFLQMNSLRAEDTAIYYCTRGEGYNWFDPWGQGTLVTVSS
VL: EIVMTQSPATLSVSPGERATLSCRASQSVSSNLAWYQQKPGQAPRLLIYGASTRATGIPARFSGSGSGTEFTLTISSLLSEDFAVYYCKQYNNWPLTFGGGTKVEIK
notes: VH/VL only
Take B11: in assay [1], the binding result is listed as “no binding (tested: FOI <10 (FOI >=10 = positive); 25 nM)”.

B12: mAb 111 (antibody, V domains shown)
VH: EVQLVESGGVLVKTGGSLRLSCVASGFSFKKAWMNWVRQAPGKGLEWVGRIKRNSDGGAADYAAPVKDRFTLSRDDSKNTLYLQMNSLKTEDTAVYYCTTLDSSSWYVGYYYMDVWGKGTTVTVSS
VL: DIHMTQSPSSVSASLGDRVTFTCRASQNINNWLAWYQQKPGKAPKLLIYTASSLQSGVPSRFSGSGSGTDFTLTISSLQPDDFATYYCQQAHSLPITFGQGTRLGIK
notes: VH and VL only
Regarding B12, the Kd in the assay with human CD3e/d is 19.6 nM; in the assay with human CD3e/g, 7.44 nM.

B13: mAb 127 (antibody, V domains shown)
VH: EVQLVESGGGLVKTGGSHRLSCVASGFSFKKAWMNWVRQAPGKGLEWVGRIKRNSDGGTTDYAAPVKGRFILSRDDSKNTLYLQMNSLKTEDTAVYYCTTLDSSSWYVGYYYMDVWGKGTTVTVSS
VL: DIQMTQSPSSVSASVGDRVTITCRASQDINNWLAWYQQKPGKAPKILIYTASNLQSGVPSRFSGSGSGTDFTLTISTLQPEDFATYFCQQAHGLPITFGQGTRLEIK
notes: VH and VL only
As for B13, the dissociation constant Kd is 65 nM in the assay with human CD3e/d and 15.4 nM in the assay with human CD3e/g.

B14: mAb 129 (antibody, V domains shown)
VH: EVQLVESGGDLVKTGGSLRLSCVASGFSFKKAWMNWVRQAPGKGLEWVGRIKRNTDGGATDYAAPVKDRFTLSRDDSKNTLYLQMNSLKTEDTAVYYCTTLDSSSWYVGYYYMDVWGKGTTVTVSS
VL: DIHMTQSPSSVSASLGDRVTFTCRASQDINNWLAWYQQKPGKAPRLLIYTASSLQSGVPSRFSGSGSGTDFTLTISSLQPDDFATYYCQQAHSLPITFGQGTRLGIE
notes: VH and VL only
As to B14, the Kd with human CD3e/d stood at 26.4 nM; with human CD3e/g, 6.62 nM.

B15: mAb 123 (antibody, V domains shown)
VH: DVQLVESGGGTVKTGGSLRLSCVASGFSFKKAWMNWVRQAPGKGLEWVGRIKKNSDDGTADYAAPVKGRFTISRDDSKRTLFLQMNSLQTEDTAVYYCTTLDSSSWFVGYYYMDVWGKGTTVTVSS
VL: DIQMTQSPSSVSASVGDRVIITCRASQDINNWLAWYQQKPGKAPKLLIYTASSLQSGVPSRFSGSGSVSDFTLTIDSLQPEDFATYYCQQAHSLPITFGQGTRLEIK
notes: VH and VL only
Consider B15, for which the Kd with human CD3e/d came to 56.1 nM; with human CD3e/g it was 16.6 nM.

B16: mAb 288 (antibody, V domains shown)
VH: EVQLLESGGNLGQPGGSLRLSCAVSGFTFSSYTMSWVRQAPGKGLEWVSAISGSGGRTYYADSVKGRFTISRDNSKNTLYLQMKSLRAEDTAVYYCAKKFSYYYYYMDVWGKGTTVTVSS
VL: SYELTQPLSVSVALGQTARITCGGNNIGSKDVHWYQQKPGQAPVLVIYRDSNRPSGIPERFSGSNSGNTATLTISSAQAGDEADYYCQVWDSNTAVFGGGTQLTAL
notes: VH/VL only
For B16, the binding result in assay [1] is reported as “no binding (tested: FOI <10 (FOI >=10 = positive); 25 nM)”.

B17: mAb 49 (antibody, V domains shown)
VH: EVQLVESGGGLVPPGGSLRLSCVASGFTLRSYTMNWVRQAPGQGLEWISYISSTSRTIYYSDSVKGRFTISRDNAKNSLYLQVNSLRDEDTALYYCAREDYYDSSGFDCWGQGTLVTVSS
VL: AIRMTQSPSSFSASTGDRVTITCRASQGIFNYLAWYQQKPGKAPKLLIYSTSTLQSGVPSRFSGSGSGTDFTLTIRGLQSEDLATYYCQQYYSFPRTFGQGTKVDIK
notes: VH and VL only
Consider B17, for which the Kd was 10.8 nM with human CD3e/d and 3.64 nM in the assay with human CD3e/g.
